Reference: patent US20110229941

Molecular target: T1, crotonyl-S-SfaO (N-terminal 6x His-tagged free acyl carrier protein SfaO carrying a crotonyl thioester)
T1 chain: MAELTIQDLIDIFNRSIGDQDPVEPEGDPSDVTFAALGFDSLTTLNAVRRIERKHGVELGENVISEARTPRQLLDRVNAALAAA

B1: N-terminal 6x His-tagged SfaR (crotonyl-CoA reductase) (protein)
chain: VNEILSAVLSAEATAADFAALPLPESYRAITVHKDETEMFTGVGPADKDPRKSLHLDEVPVPELGPGEALVAVMASSVNYNSVWSSIFEPLPTFAFLERYGRRGELAKRHDLPYHVIGSDLAGVVLRTGPGVQAWKPGDEVVAHCLSVELESSDGHDDTMMDPEQRIWGFETNFGGLAELALVKSNQLMPKPRHLTWEEAAAPGLVNSTAYRQLVSRNGAQMKQGDNVLIWGASGGLGSYATQLALAGGANPVCVVSTPQKAAICRSMGAEAVIDRDAEDYRFWRDGNTQDPREWKRFGKRIRELTGGEDVDIVFEHPGRETFGASVFVARKGGTIVTCASTSGYEHQYDNRYLWMSLKRIIGSHFANYREAWEANRLVAKGRIHPTLSKVYPLEETGQAAFDVYGNVHHGKVGVLGLAPTEGLGVRDEEMRARHVGAINRFRPSAEPQTEPV
Q: Which “activity of SfaR (reduction / reductive carboxylation) with crotonyl-S-SfaO as the substrate” value does the source give for B1 here?
A: Its value is “failed to detect any activity of SfaR”.
